Measurements as given in the supplement of paper PMC10567573.

B1: CPN1 (parent)
chain: RGVRRTASTPTPDDKLFQKLAKVY

Variants of: B1
Assay: protein stability index of a GFP-peptide fusion (GPS, HEK-293T) (PSI 1-6); higher = more stable
Conditions: c terminus: a fixed tail appended
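Note: lentivirally expressed fusions sorted by FACS into six bins by GFP to DsRed ratio, PSI derived from sequencing read proportions per bin multiplied by bin number.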

Q: With RGVRRTASTPTPDDKHFQKLAKVY [L16H] as the variant, how does the protein stability index read?
A: 2.64

Q: For RGVRRTASTPTPDDKEFQKLAKVY [L16E], which protein stability index is on record?
A: 2.68

Q: With RGVRRTASTPTPDDKNFQKLAKVY [L16N] as the variant, how does the protein stability index read?
A: 3.32

Q: For RGVRRTASTPTPDDKDFQKLAKVY [L16D], which protein stability index is on record?
A: 4.21

Q: For RGVRRTASTPTPDDKWFQKLAKVY [L16W], which protein stability index is on record?
A: 1.85

Q: Which protein stability index does the source give for RGVRRTASTPTPDDKGFQKLAKVY [L16G] here?
A: 3.29

Q: Which protein stability index does the source give for RGVRRTASTPTPDDKIFQKLAKVY [L16I] here?
A: 2.61

Q: For RGVRRTASTPTPDDKVFQKLAKVY [L16V], which protein stability index is on record?
A: 2.29

Q: With RGVRRTASTPTPDDKQFQKLAKVY [L16Q] as the variant, how does the protein stability index read?
A: 3.31

Q: For RGVRRTASTPTPDDKRFQKLAKVY [L16R], which protein stability index is on record?
A: 3.34

Q: With RGVRRTASTPTPDDKFFQKLAKVY [L16F] as the variant, how does the protein stability index read?
A: 1.9

Q: Which protein stability index does the source give for RGVRRTASTPTPDDKYFQKLAKVY [L16Y] here?
A: 1.92

Q: For RGVRRTASTPTPDDKAFQKLAKVY [L16A], which protein stability index is on record?
A: 2.65

Q: For RGVRRTASTPTPDDKCFQKLAKVY [L16C], which protein stability index is on record?
A: 2.52

Q: Which protein stability index does the source give for RGVRRTASTPTPDDKLFQKRAKVY [L20R] here?
A: 3.3

Q: For RGVRRTASTPTPDDKLFQKGAKVY [L20G], which protein stability index is on record?
A: 3.86

Q: Which protein stability index does the source give for RGVRRTASTPTPDDKLFQKDAKVY [L20D] here?
A: 4.06

Q: For RGVRRTASTPTPDDKLFQKQAKVY [L20Q], which protein stability index is on record?
A: 3.17

Q: With RGVRRTASTPTPDDKLFQKNAKVY [L20N] as the variant, how does the protein stability index read?
A: 3.48

Q: With RGVRRTASTPTPDDKLFQKEAKVY [L20E] as the variant, how does the protein stability index read?
A: 3.85

Q: For RGVRRTASTPTPDDKLFQKPAKVY [L20P], which protein stability index is on record?
A: 3.58

Q: Which protein stability index does the source give for RGVRRTASTPTPDDKLFQKFAKVY [L20F] here?
A: 1.82

Q: For RGVRRTASTPTPDDKLFQKWAKVY [L20W], which protein stability index is on record?
A: 2.58

Q: Which protein stability index does the source give for RGVRRTASTPTPDDKLFQKHAKVY [L20H] here?
A: 3.22

Q: With RGVRRTASTPTPDDKLFQKVAKVY [L20V] as the variant, how does the protein stability index read?
A: 3.48

Q: Which protein stability index does the source give for RGVRRTASTPTPDDKLFQKAAKVY [L20A] here?
A: 3.4

Q: Which protein stability index does the source give for RGVRRTASTPTPDDKLFQKTAKVY [L20T] here?
A: 3.52

Q: For RGVRRTASTPTPDDKLFQKCAKVY [L20C], which protein stability index is on record?
A: 2.56

Q: Which protein stability index does the source give for RGVRRTASTPTPDDKLFQKSAKVY [L20S] here?
A: 3.7

Q: Which protein stability index does the source give for RGVRRTASTPTPDDKLFQKKAKVY [L20K] here?
A: 3.68

Q: With RGVRRTASTPTPDDKLFQKIAKVY [L20I] as the variant, how does the protein stability index read?
A: 1.92

Q: For RGVRRTASTPTPDDKLFQKMAKVY [L20M], which protein stability index is on record?
A: 2.23

Q: For RGVRRTASTPTPDDKLFQKYAKVY [L20Y], which protein stability index is on record?
A: 2.4

Q: Which protein stability index does the source give for RGVRRTASTPTPDDKLFQKLAGVY [K22G] here?
A: 2.82

Q: With RGVRRTASTPTPDDKLFQKLADVY [K22D] as the variant, how does the protein stability index read?
A: 1.95

Q: For RGVRRTASTPTPDDKLFQKLACVY [K22C], which protein stability index is on record?
A: 1.8

Q: For RGVRRTASTPTPDDKLFQKLAEVY [K22E], which protein stability index is on record?
A: 1.87

Q: Which protein stability index does the source give for RGVRRTASTPTPDDKLFQKLAHVY [K22H] here?
A: 1.98

Q: Which protein stability index does the source give for RGVRRTASTPTPDDKLFQKLAMVY [K22M] here?
A: 2.04

Q: With RGVRRTASTPTPDDKLFQKLAIVY [K22I] as the variant, how does the protein stability index read?
A: 1.45

Q: With RGVRRTASTPTPDDKLFQKLANVY [K22N] as the variant, how does the protein stability index read?
A: 2.4

Q: With RGVRRTASTPTPDDKLFQKLALVY [K22L] as the variant, how does the protein stability index read?
A: 2.73

Q: With RGVRRTASTPTPDDKLFQKLAAVY [K22A] as the variant, how does the protein stability index read?
A: 2.19

Q: For RGVRRTASTPTPDDKLFQKLAPVY [K22P], which protein stability index is on record?
A: 2.37

Q: With RGVRRTASTPTPDDKLFQKLAFVY [K22F] as the variant, how does the protein stability index read?
A: 1.96

Q: Which protein stability index does the source give for RGVRRTASTPTPDDKLFQKLDKVY [A21D] here?
A: 2.78

Q: Which protein stability index does the source give for RGVRRTASTPTPDDKLFQKLCKVY [A21C] here?
A: 2.22

Q: For RGVRRTASTPTPDDKLFQKLIKVY [A21I], which protein stability index is on record?
A: 1.85

Q: Which protein stability index does the source give for RGVRRTASTPTPDDKLFQKLFKVY [A21F] here?
A: 1.64

Q: For RGVRRTASTPTPDDKLFQKLKKVY [A21K], which protein stability index is on record?
A: 1.76

Q: With RGVRRTASTPTPDDKLFQKLWKVY [A21W] as the variant, how does the protein stability index read?
A: 2.22

Q: Which protein stability index does the source give for RGVRRTASTPTPDDKLFQKLGKVY [A21G] here?
A: 3.23

Q: Which protein stability index does the source give for RGVRRTASTPTPDDKLFQKLTKVY [A21T] here?
A: 1.78

Q: With RGVRRTASTPTPDDKLFQKLRKVY [A21R] as the variant, how does the protein stability index read?
A: 1.83

Q: With RGVRRTASTPTPDDKLFQKLPKVY [A21P] as the variant, how does the protein stability index read?
A: 2.62

Q: Which protein stability index does the source give for RGVRRTASTPTPDDKLFQKLVKVY [A21V] here?
A: 1.6

Q: Which protein stability index does the source give for RGVRRTASTPTPDDKLFQKLQKVY [A21Q] here?
A: 2.48

Q: With RGVRRTASTPTPDDKLFQKLYKVY [A21Y] as the variant, how does the protein stability index read?
A: 2.27

Q: With RGVRRTASTPTPDDKLFQKLEKVY [A21E] as the variant, how does the protein stability index read?
A: 3.11

Q: Which protein stability index does the source give for RGVRRTASTPTPDDKLFQKLMKVY [A21M] here?
A: 1.73

Q: For RGVRRTASTPTPDDKLFQKLNKVY [A21N], which protein stability index is on record?
A: 2.66

Q: For RGVRRTASTPTPDDKLFQKLSKVY [A21S], which protein stability index is on record?
A: 2.15

Q: With RGVRRTASTPTPDDKLFQKLHKVY [A21H] as the variant, how does the protein stability index read?
A: 2.29

Q: With RGVRRTASTPTPDDKLFQKLLKVY [A21L] as the variant, how does the protein stability index read?
A: 1.58

Q: With RGVRRTASTPTMDDKLFQKLAKVY [P12M] as the variant, how does the protein stability index read?
A: 2.01

Q: Which protein stability index does the source give for RGVRRTASTPTIDDKLFQKLAKVY [P12I] here?
A: 1.89

Q: Which protein stability index does the source give for RGVRRTASTPTLDDKLFQKLAKVY [P12L] here?
A: 1.44

Q: Which protein stability index does the source give for RGVRRTASTPTSDDKLFQKLAKVY [P12S] here?
A: 3.04

Q: Which protein stability index does the source give for RGVRRTASTPTVDDKLFQKLAKVY [P12V] here?
A: 1.68

Q: With RGVRRTASTPTYDDKLFQKLAKVY [P12Y] as the variant, how does the protein stability index read?
A: 2.94

Q: Which protein stability index does the source give for RGVRRTASTPTTDDKLFQKLAKVY [P12T] here?
A: 1.81

Q: Which protein stability index does the source give for RGVRRTASTPTWDDKLFQKLAKVY [P12W] here?
A: 2.48

Q: With RGVRRTASTPTQDDKLFQKLAKVY [P12Q] as the variant, how does the protein stability index read?
A: 2.05

Q: With RGVRRTASTPTKDDKLFQKLAKVY [P12K] as the variant, how does the protein stability index read?
A: 2.32

Q: With RGVRRTASTPTRDDKLFQKLAKVY [P12R] as the variant, how does the protein stability index read?
A: 1.89

Q: Which protein stability index does the source give for RGVRRTASTPTNDDKLFQKLAKVY [P12N] here?
A: 1.98

Q: With RGVRRTASTPTPDDCLFQKLAKVY [K15C] as the variant, how does the protein stability index read?
A: 1.95

Q: For RGVRRTASTPTPDDMLFQKLAKVY [K15M], which protein stability index is on record?
A: 1.33

Q: Which protein stability index does the source give for RGVRRTASTPTPDDRLFQKLAKVY [K15R] here?
A: 1.78

Q: For RGVRRTASTPTPDDFLFQKLAKVY [K15F], which protein stability index is on record?
A: 3.23

Q: For RGVRRTASTPTPDDILFQKLAKVY [K15I], which protein stability index is on record?
A: 1.76

Q: For RGVRRTASTPTPDDPLFQKLAKVY [K15P], which protein stability index is on record?
A: 2.12

Q: For RGVRRTASTPTPDDSLFQKLAKVY [K15S], which protein stability index is on record?
A: 2.02

Q: Which protein stability index does the source give for RGVRRTASTPTPDDLLFQKLAKVY [K15L] here?
A: 1.8

Q: Which protein stability index does the source give for RGVRRTASTPTPDDNLFQKLAKVY [K15N] here?
A: 1.7

Q: With RGVRRTASTPTPDDHLFQKLAKVY [K15H] as the variant, how does the protein stability index read?
A: 1.75

Q: For RGVRRTASTPTPDDDLFQKLAKVY [K15D], which protein stability index is on record?
A: 1.99

Q: With RGVRRTASTPTPDDALFQKLAKVY [K15A] as the variant, how does the protein stability index read?
A: 1.58

Q: For RGVRRTASTPTPDDGLFQKLAKVY [K15G], which protein stability index is on record?
A: 2

Q: Which protein stability index does the source give for RGVRRTASTPTPDDELFQKLAKVY [K15E] here?
A: 2.2

Q: Which protein stability index does the source give for RGVRRTASTPTPDDYLFQKLAKVY [K15Y] here?
A: 1.63

Q: With RGVRRTASTPTPDDTLFQKLAKVY [K15T] as the variant, how does the protein stability index read?
A: 1.7

Q: Which protein stability index does the source give for RGVRRTASTPTPDDQLFQKLAKVY [K15Q] here?
A: 2.08

Q: Which protein stability index does the source give for RGVRRTASTPTPDDWLFQKLAKVY [K15W] here?
A: 1.93
